From publication PMC10440015
pKd: −log10 of the molar value. “And” between values parts separate entries of the source, which are not always exact repeats. Identical values can stand only once.

Experiments:
…-Toyopearl resin = experiment: affinity chromatography
KWWIWAG-Toyopearl resin = experiment: affinity chromatography
FFNFFKG-Toyopearl resin [1] = experiment: affinity chromatography
WKAHNKG-Toyopearl resin = experiment: affinity chromatography
WWIKISG-Toyopearl resin = experiment: affinity chromatography
FNHFFIG-Toyopearl resin = experiment: affinity chromatography
GYISRHPG-Toyopearl resin = experiment: affinity chromatography
KFNHWFG-Toyopearl resin [2] = experiment: affinity chromatography
[3] = biological target: the peptide-based adsorbents; experiment: affinity chromatography
KFNHWFG-Toyopearl resin [4] = experiment: batch adsorption isotherm
FFNFFKG-Toyopearl resin [5] = experiment: breakthrough chromatography
KFNHWFG-Toyopearl resin [6] = experiment: breakthrough chromatography

Row | Substance | yield (AAV titer in elution fraction vs. load) (…-Toyopearl resin) | yield (AAV titer in elution fraction vs. load) (KWWIWAG-Toyopearl resin) [%] | yield (AAV titer in elution fraction vs. load) (FFNFFKG-Toyopearl resin [1]) [%] | loss (AAV titer in flow-through and wash vs. load) (WKAHNKG-Toyopearl resin) [%] | yield (AAV titer in elution fraction vs. load) (WKAHNKG-Toyopearl resin) [%] | loss (AAV titer in flow-through and wash vs. load) (…-Toyopearl resin) [%] | loss (AAV titer in flow-through and wash vs. load) (WWIKISG-Toyopearl resin) [%] | loss (AAV titer in flow-through and wash vs. load) (KWWIWAG-Toyopearl resin) [%] | loss (AAV titer in flow-through and wash vs. load) (FNHFFIG-Toyopearl resin) [%] | loss (AAV titer in flow-through and wash vs. load) (FFNFFKG-Toyopearl resin [1]) [%] | loss (AAV titer in flow-through and wash vs. load) (GYISRHPG-Toyopearl resin) [%] | loss (AAV titer in flow-through and wash vs. load) (KFNHWFG-Toyopearl resin [2]) [%] | yield (AAV titer in elution fraction vs. load) (KFNHWFG-Toyopearl resin [2]) [%] | loss (AAV titer in flow-through and wash vs. load) [3] [%] | yield (AAV titer in elution fraction vs. load) [3] [%] | pKd (KFNHWFG-Toyopearl resin [4]) | DBC10% (dynamic binding capacity at 10% breakthrough) (vp AAV per mL of resin) (FFNFFKG-Toyopearl resin [5]) | DBC10% (dynamic binding capacity at 10% breakthrough) (vp AAV per mL of resin) (KFNHWFG-Toyopearl resin [6])
1 | Adeno-associated virus serotype 9 capsid (complex) | 61.7% and 43.9% and 53.7% | 57.2 | 72.4 | – | – | – | – | – | – | – | – | – | – | – | – | – | – | –
2 | Adeno-associated virus serotype 2 capsid (complex) | 54.9% and 44.8% | – | – | < 1.7 | 79.8 | < 1.7 | < 1.7 | < 1.7 | < 1.7 | < 1.7 | < 1.7 | < 1.7 | 45 | 1 to 4 | 40 to 65 | 12.80 | 1.4e+13 | 1.33e+13
